Measurements from the supplement of paper PMC5998384.

What was measured:
HeLa Kyoto [1] = assay: solubility change mitosis vs G1/S (difference of NP-40 vs SDS log2 ratios) (log2 ratio difference); higher = more soluble in mitosis
HeLa Kyoto [2] = assay: solubility in G1/S (NP-40 vs SDS abundance) (log2 ratio); higher = more soluble; settings: cell cycle stage: G1/S
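For solubility change mitosis vs G1/S (difference of NP-40 vs SDS log2 ratios) in this document: synchronized HeLa Kyoto cells (double thymidine block for G1/S, nocodazole release for mitosis), protein amounts in NP-40 versus SDS lysates quantified by mass spectrometry, three biological replicates.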
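For solubility in G1/S (NP-40 vs SDS abundance) in this document: HeLa Kyoto cells arrested at G1/S by double thymidine block, proteins quantified by TMT10plex mass spectrometry in mild NP-40 versus SDS extracts, three biological replicates.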

Sequence | solubility change mitosis (log2) (HeLa Kyoto [1]) | solubility in G1/S (log2) (HeLa Kyoto [2])
MSETDHIASTSSDKNVGKTPELKEDSCNLFSGNESSKLENESKLLSLNTDKTLCQPNEHNNRIEAQENYIPDHGGGEDSCAKTDTGSENSEQIANFPSGNFAKHISKTNETEQKVTQILVELRSSTFPESANEKTYSESPYDTDCTKKFISKIKSVSASEDLLEEIESELLSTEFAEHRVPNGMNKGEHALVLFEKCVQDKYLQQEHIIKKLIKENKKHQELFVDICSEKDNLREELKKRTETEKQHMNTIKQLESRIEELNKEVKASRDQLIAQDVTAKNAVQQLHKEMAQRMEQANKKCEEARQEKEAMVMKYVRGEKESLDLRKEKETLEKKLRDANKELEKNTNKIKQLSQEKGRLHQLYETKEGETTRLIREIDKLKEDINSHVIKVKWAQNKLKAEMDSHKETKDKLKETTTKLTQAKEEADQIRKNCQDMIKTYQESEEIKSNELDAKLRVTKGELEKQMQEKSDQLEMHHAKIKELEDLKRTFKEGMDELRTLRTKVKCLEDERLRTEDELSKYKEIINRQKAEIQNLLDKVKTADQLQEQLQRGKQEIENLKEEVESLNSLINDLQKDIEGSRKRESELLLFTERLTSKNAQLQSESNSLQSQFDKVSCSESQLQSQCEQMKQTNINLESRLLKEEELRKEEVQTLQAELACRQTEVKALSTQVEELKDELVTQRRKHASSIKDLTKQLQQARRKLDQVESGSYDKEVSSMGSRSSSSGSLNARSSAEDRSPENTGSSVAVDNFPQVDKAMLIERIVRLQKAHARKNEKIEFMEDHIKQLVEEIRKKTKIIQSYILREESGTLSSEASDFNKVHLSRRGGIMASLYTSHPADNGLTLELSLEINRKLQAVLEDTLLKNITLKENLQTLGTEIERLIKHQHELEQRTKKT [CCDC186] | 0.000436 | 0.232
MSEVLPADSGVDTLAVFMASSGTTDVTNRNSPATPPNTLNLRSSHNELLNAEIKHTETKNSTPPKCRKKYALTNIQAAMGLSDPAAQPLLGNGSANIKLVKNGENQLRKAAEQGQQDPNKNLSPTAVINITSEKLEGKEPHPQDSSSCEILPSQPRRTKSFLNYYADLETSARELEQNRGNHHGTAEEKSQPVQGQASTIIGNGDLLLQKPNRPQSSPEDGQVATVSSSPETKKDHPKTGAKTDCALHRIQNLAPSDEESSWTTLSQDSASPSSPDETDIWSDHSFQTDPDLPPGWKRVSDIAGTYYWHIPTGTTQWERPVSIPADLQGSRKGSLSSVTPSPTPENEKQPWSDFAVLNGGKINSDIWKDLHAATVNPDPSLKEFEGATLRYASLKLRNAPHPDDDDSCSINSDPEAKCFAVRSLGWVEMAEEDLAPGKSSVAVNNCIRQLSYCKNDIRDTVGIWGEGKDMYLILENDMLSLVDPMDRSVLHSQPIVSIRVWGVGRDNGRDFAYVARDKDTRILKCHVFRCDTPAKAIATSLHEICSKIMAERKNAKALACSSLQERANVNLDVPLQVDFPTPKTELVQKFHVQYLGMLPVDKPVGMDILNSAIENLMTSSNKEDWLSVNMNVADATVTVISEKNEEEVLVECRVRFLSFMGVGKDVHTFAFIMDTGNQRFECHVFWCEPNAGNVSEAVQAACMLRYQKCLVARPPSQKVRPPPPPADSVTRRVTTNVKRGVLSLIDTLKQKRPVTEMP [APBB2] | -0.0698 | 0.0839
MSFLIDSSIMITSQILFFGFGWLFFMRQLFKDYEIRQYVVQVIFSVTFAFSCTMFELIIFEILGVLNSSSRYFHWKMNLCVILLILVFMVPFYIGYFIVSNIRLLHKQRLLFSCLLWLTFMYFFWKLGDPFPILSPKHGILSIEQLISRVGVIGVTLMALLSGFGAVNCPYTYMSYFLRNVTDTDILALERRLLQTMDMIISKKKRMAMARRTMFQKGEVHNKPSGFWGMIKSVTTSASGSENLTLIQQEVDALEELSRQLFLETADLYATKERIEYSKTFKGKYFNFLGYFFSIYCVWKIFMATINIVFDRVGKTDPVTRGIEITVNYLGIQFDVKFWSQHISFILVGIIIVTSIRGLLITLTKFFYAISSSKSSNVIVLLLAQIMGMYFVSSVLLIRMSMPLEYRTIITEVLGELQFNFYHRWFDVIFLVSALSSILFLYLAHKQAPEKQMAP [GPR89B] | -0.167 | -0.0559
MSHGPKQPGAAAAPAGGKAPGQHGGFVVTVKQERGEGPRAGEKGSHEEEPVKKRGWPKGKKRKKILPNGPKAPVTGYVRFLNERREQIRTRHPDLPFPEITKMLGAEWSKLQPTEKQRYLDEAEREKQQYMKELRAYQQSEAYKMCTEKIQEKKIKKEDSSSGLMNTLLNGHKGGDCDGFSTFDVPIFTEEFLDQNKAREAELRRLRKMNVAFEEQNAVLQRHTQSMSSARERLEQELALEERRTLALQQQLQAVRQALTASFASLPVPGTGETPTLGTLDFYMARLHGAIERDPAQHEKLIVRIKEILAQVASEHL [HMG20B] | -0.0403 | 0.616
MSKGRAEAAAGAAGILLRYLQEQNRPYSSQDVFGNLQREHGLGKAVVVKTLEQLAQQGKIKEKMYGKQKIYFADQDQFDMVSDADLQVLDGKIVALTAKVQSLQQSCRYMEAELKELSSALTTPEMQKEIQELKKECAGYRERLKNIKAATNHVTPEEKEQVYRERQKYCKEWRKRKRMATELSDAILEGYPKSKKQFFEEVGIETDEDYNVTLPDP [PSMC3IP] | 0.072 | 0.125
MSKTFLRPKVSSTKVTDWVDPSFDDFLECSGVSTITATSLGVNNSSHRRKNGPSTLESSRFPARKRGNLSSLEQIYGLENSKEYLSENEPWVDKYKPETQHELAVHKKKIEEVETWLKAQVLERQPKQGGSILLITGPPGCGKTTTLKILSKEHGIQVQEWINPVLPDFQKDDFKGMFNTESSFHMFPYQSQIAVFKEFLLRATKYNKLQMLGDDLRTDKKIILVEDLPNQFYRDSHTLHEVLRKYVRIGRCPLIFIISDSLSGDNNQRLLFPKEIQEECSISNISFNPVAPTIMMKFLNRIVTIEANKNGGKITVPDKTSLELLCQGCSGDIRSAINSLQFSSSKGENNLRPRKKGMSLKSDAVLSKSKRRKKPDRVFENQEVQAIGGKDVSLFLFRALGKILYCKRASLTELDSPRLPSHLSEYERDTLLVEPEEVVEMSHMPGDLFNLYLHQNYIDFFMEIDDIVRASEFLSFADILSGDWNTRSLLREYSTSIATRGVMHSNKARGYAHCQGGGSSFRPLHKPQWFLINKKYRENCLAAKALFPDFCLPALCLQTQLLPYLALLTIPMRNQAQISFIQDIGRLPLKRHFGRLKMEALTDREHGMIDPDSGDEAQLNGGHSAEESLGEPTQATVPETWSLPLSQNSASELPASQPQPFSAQGDMEENIIIEDYESDGT [RAD17] | 0.000111 | -0.0641
